Data reported in patent US20260097113A1 (Pfizer, published 2026).

T1: RSV F protein of subtype A comprising a polypeptide of SEQ ID NO: 1 and a polypeptide of SEQ ID NO: 2 (RSV subtype A, UniProt P11209 137-513; P03420 26-109)
T1 construct: Stabilized prefusion F trimer made of three F2-F1 heterodimers; Produced recombinantly in CHO cells; also called RSV A; RSVA
T1 chain 1: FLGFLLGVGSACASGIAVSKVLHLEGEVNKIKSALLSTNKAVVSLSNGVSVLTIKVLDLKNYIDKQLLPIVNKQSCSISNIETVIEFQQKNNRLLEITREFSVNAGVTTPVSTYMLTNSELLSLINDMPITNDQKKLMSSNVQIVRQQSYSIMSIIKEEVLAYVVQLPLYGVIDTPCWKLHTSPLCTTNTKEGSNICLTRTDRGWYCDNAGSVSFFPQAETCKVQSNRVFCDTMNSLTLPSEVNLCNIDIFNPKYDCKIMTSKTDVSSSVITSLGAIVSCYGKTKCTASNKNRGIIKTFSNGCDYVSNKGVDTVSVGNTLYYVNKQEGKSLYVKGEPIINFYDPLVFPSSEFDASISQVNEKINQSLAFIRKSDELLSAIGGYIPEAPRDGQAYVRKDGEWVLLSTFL
T1 chain 2: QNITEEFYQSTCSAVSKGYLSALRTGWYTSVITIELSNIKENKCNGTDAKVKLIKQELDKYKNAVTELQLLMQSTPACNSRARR

B1: AM14 (trimeric prefusion specific antibody of the AM14 ELISA) (antibody, V domains shown)
VH: EVQLVESGGGVVQPGRSLRLSCAASGFSFSHYAMHWVRQAPGKGLEWVAVISYDGENTYYADSVKGRFSISRDNSKNTVSLQMNSLRPEDTALYYCARDRIVDDYYYYGMDVWGQGATVTVSS
VL: DIQMTQSPSSLSASVGDRVTITCQASQDIKKYLNWYHQKPGKVPELLMHDASNLETGVPSRFSGRGSGTDFTLTISSLQPEDIGTYYCQQYDNLPPLTFGGGTKVEIKR
notes: Antibody as used in the AM14 ELISA, detected with an HRP-labeled secondary antibody

Columns and labels:
[1] = target: RSV A + RSV B bivalent composition (RSV subtype A; RSV subtype B); assay: AM14 Fab titration by SEC; Low-Fast cycle; 3 M 2-8°C
[2] = target: RSV A + RSV B bivalent composition (RSV subtype A; RSV subtype B); assay: AM14 Fab titration by SEC; Target cycle; 1 M 2-8°C
[3] = target: RSV A + RSV B bivalent composition (RSV subtype A; RSV subtype B); assay: AM14 Fab titration by SEC; High-Slow 2 cycle; 1 M 2-8°C (second value)
[4] = target: RSV A + RSV B bivalent composition (RSV subtype A; RSV subtype B); assay: AM14 Fab titration by SEC; Target cycle; 8 M 2-8°C
[5] = target: RSV A + RSV B bivalent composition (RSV subtype A; RSV subtype B); assay: AM14 Fab titration by SEC; High-Slow 1 cycle; 1 M 25°C
[6] = target: RSV A + RSV B bivalent composition (RSV subtype A; RSV subtype B); assay: AM14 Fab titration by SEC; composition of Table 17; Pre-lyo Prep 2, T0
[7] = target: RSV A + RSV B bivalent composition (RSV subtype A; RSV subtype B); assay: AM14 Fab titration by SEC; Target cycle; 3 M 25°C
[8] = target: RSV A + RSV B bivalent composition (RSV subtype A; RSV subtype B); assay: AM14 Fab titration by SEC; High-Slow 1 cycle; 3 M 40°C
[9] = target: RSV A + RSV B bivalent composition (RSV subtype A; RSV subtype B); assay: AM14 Fab titration by SEC; Low-Fast cycle; 3 M 25°C (second value)
[10] = target: RSV A + RSV B bivalent composition (RSV subtype A; RSV subtype B); assay: AM14 Fab titration by SEC; Target cycle; 1 M 2-8°C (second value)
[11] = target: T1, RSV F protein of subtype A comprising a …; assay: AM14 ELISA; F11 (pH 7, 50 mM NaCl, 9.0% sucrose); 1 wk 5°C
[12] = target: T1, RSV F protein of subtype A comprising a …; assay: AM14 ELISA; F1 (pH 8, 100 mM NaCl, 0% sucrose); 2 wk 5°C
[13] = target: T1, RSV F protein of subtype A comprising a …; assay: AM14 ELISA; F11 (pH 7, 50 mM NaCl, 9.0% sucrose); 2 wk 25°C
[14] = target: T1, RSV F protein of subtype A comprising a …; assay: AM14 ELISA; F12 (pH 8, 100 mM NaCl, 9.0% sucrose); 1 wk 25°C
[15] = target: T1, RSV F protein of subtype A comprising a …; assay: AM14 ELISA; F1 (pH 8, 100 mM NaCl, 0% sucrose); T0
[16] = target: T1, RSV F protein of subtype A comprising a …; assay: AM14 ELISA; F11 (pH 7, 50 mM NaCl, 9.0% sucrose); 2 wk 5°C
[17] = target: T1, RSV F protein of subtype A comprising a …; assay: AM14 ELISA; F4 (pH 6, 50 mM NaCl, 4.5% sucrose); 1 wk 5°C
[18] = target: T1, RSV F protein of subtype A comprising a …; assay: AM14 ELISA; F6 (pH 7, 0 mM NaCl, 4.5% sucrose); 2 wk 25°C
[19] = target: T1, RSV F protein of subtype A comprising a …; assay: AM14 ELISA; F3 (pH 8, 0 mM NaCl, 9% sucrose); 1 wk 5°C

Molecule | Prefusion Content (%) [1] [%] | Prefusion Content (%) [2] [%] | Prefusion Content (%) [3] [%] | Prefusion Content (%) [4] [%] | Prefusion Content (%) [5] [%] | Prefusion Content (%) [6] [%] | Prefusion Content (%) [7] [%] | Prefusion Content (%) [8] [%] | Prefusion Content (%) [9] [%] | Prefusion Content (%) [10] [%] | AM14 prefusion content (%), relative to standard [11] [%] | AM14 prefusion content (%), relative to standard [12] [%] | AM14 prefusion content (%), relative to standard [13] [%] | AM14 prefusion content (%), relative to standard [14] [%] | AM14 prefusion content (%), relative to standard [15] [%] | AM14 prefusion content (%), relative to standard [16] [%] | AM14 prefusion content (%), relative to standard [17] [%] | AM14 prefusion content (%), relative to standard [18] [%] | AM14 prefusion content (%), relative to standard [19] [%]
AM14 Fab | 56 | 59 | 65 | 73 | 51 | 81 | 71 | 52 | 68 | 69 | – | – | – | – | – | – | – | – | –
B1 | – | – | – | – | – | – | – | – | – | – | 101 | 100 | 82 | 82 | 120 | 90 | 76 | 83 | 104
